For assay [1], the target named is T1, soluble HLA-B*1501 (human).
T1 construct: Member of the panel of 53 single-specificity sHLA
The assay is described as follows: FP screen of 53 sHLA with FITC-peptide.

Assay [2] concerns the target T2, soluble HLA-A*2402 (human).
T2 construct: Member of the panel of 53 single-specificity sHLA
Description: FP screen of 53 sHLA with FITC-peptide.

Assay [3] concerns the target T3, soluble HLA-A*2902 (human).
T3 construct: Member of the panel of 53 single-specificity sHLA
Description: FP screen of 53 sHLA with FITC-peptide.

The target in assay [4] is T4, soluble HLA-A*6601 (human).
T4 construct: Member of the panel of 53 single-specificity sHLA
Description: FP screen of 53 sHLA with FITC-peptide.

Assay [5] has as its target T5, soluble HLA-A*2301 (human).
T5 construct: Member of the panel of 53 single-specificity sHLA
Description: FP screen of 53 sHLA with FITC-peptide.

The target in assay [6] is T6, soluble HLA-B*4501 (human).
T6 construct: Member of the panel of 53 single-specificity sHLA
The assay is described as follows: FP screen of 53 sHLA with FITC-peptide.

Assay [7] addresses T7, soluble HLA-B*2705 (sHLA-B*2705) (human).
T7 construct: Recombinant soluble class I with endogenous peptides, made as m1; negative control
The assay is described as follows: FP screen.

In assay [8] the target is T8, soluble HLA-B*4002 (human).
T8 construct: Member of the panel of 53 single-specificity sHLA
The assay is described as follows: FP screen.

Assay [9] has as its target T9, soluble HLA-B*4402 (human).
T9 construct: Member of the panel of 53 single-specificity sHLA
The assay is described as follows: FP screen.

The target in assay [10] is T10, soluble HLA-A*6801 (sHLA-A*6801) (human).
T10 construct: Recombinant soluble class I with endogenous peptides, made as m1
The assay is described as follows: FP screen.

For assay [11], the target named is soluble HLA-A*0201 (sHLA-A*0201) (human). The assay is described as follows: FP screen.
Assay [12] concerns the target T11, soluble HLA-B*1302 (human).
T11 construct: Member of the panel of 53 single-specificity sHLA
Description: FP screen.

For assay [13], the target named is T12, soluble HLA-B*1512 (human).
T12 construct: Member of the panel of 53 single-specificity sHLA
Description: FP screen.

The target of assay [14] is T13, soluble HLA-A*3002 (human).
T13 construct: Member of the panel of 53 single-specificity sHLA
The assay is described as follows: FP screen.

Assay [15] addresses T14, soluble HLA-B*1801 (human).
T14 construct: Member of the panel of 53 single-specificity sHLA
Description: FP screen.

Assay [16] deals with T15, soluble HLA-A*2601 (human).
T15 construct: Member of the panel of 53 single-specificity sHLA
Description: FP screen.

The target of assay [17] is T16, soluble HLA-B*4001 (human).
T16 construct: Member of the panel of 53 single-specificity sHLA
Description: FP screen.

For assay [18], the target named is T17, soluble HLA-A*0101 (human).
T17 construct: Member of the panel of 53 single-specificity sHLA
The assay is described as follows: FP screen.

The target in assay [19] is T18, soluble HLA-A*0301 (human).
T18 construct: Member of the panel of 53 single-specificity sHLA
Description: FP screen.

The target of assay [20] is T19, soluble HLA-A*3601 (human).
T19 construct: Member of the panel of 53 single-specificity sHLA
Description: FP screen.

For assay [21], the target named is T20, soluble HLA-A*3402 (human).
T20 construct: Member of the panel of 53 single-specificity sHLA
Description: FP screen.

Assay [22] addresses T21, soluble HLA-A*6901 (sHLA-A*6901) (human).
T21 construct: Recombinant soluble class I with endogenous peptides, made as m1
Description: FP screen.

In assay [23] the target is T22, soluble HLA-A*1102 (sHLA-A*1102) (human, UniProt P04439 25-308; P61769 21-119).
T22 construct: Recombinant soluble class I with endogenous peptides, made as m1
Description: FP screen.

In assay [24] the target is T23, soluble HLA-A*4301 (sHLA-A*4301) (human).
T23 construct: Recombinant soluble class I with endogenous peptides, made as m1
The assay is described as follows: FP screen.

Assay [25] deals with T16, soluble HLA-B*4001. The assay is described as follows: FP screen of 53 sHLA.
The target of assay [26] is T7, soluble HLA-B*2705 (sHLA-B*2705). The assay is described as follows: FP screen. The source holds these as a separate data set.
Assay [27] concerns the target T9, soluble HLA-B*4402. The assay is described as follows: FP screen. This is another data set of the same source.
In assay [28] the target is T10, soluble HLA-A*6801 (sHLA-A*6801). The assay is described as follows: FP screen. This is another data set of the same source.
The target of assay [29] is soluble HLA-A*0201 (sHLA-A*0201) (human). Description: FP screen. The source holds these as a separate data set.
The target of assay [30] is T11, soluble HLA-B*1302. The assay is described as follows: FP screen. The source holds these as a separate data set.
Assay [31] addresses T12, soluble HLA-B*1512. The assay is described as follows: FP screen. This is another data set of the same source.
Assay [32] addresses T13, soluble HLA-A*3002. The assay is described as follows: FP screen. The source holds these as a separate data set.
The target in assay [33] is T2, soluble HLA-A*2402. Description: FP screen.
Assay [34] addresses T3, soluble HLA-A*2902. Description: FP screen.
For assay [35], the target named is T4, soluble HLA-A*6601. The assay is described as follows: FP screen.
Assay [36] concerns the target T15, soluble HLA-A*2601. The assay is described as follows: FP screen. This is another data set of the same source.
Assay [37] has as its target T5, soluble HLA-A*2301. The assay is described as follows: FP screen.
Assay [38] addresses T18, soluble HLA-A*0301. The assay is described as follows: FP screen. This is another data set of the same source.
Assay [39] concerns the target T19, soluble HLA-A*3601. The assay is described as follows: FP screen. This is another data set of the same source.
For assay [40], the target named is T20, soluble HLA-A*3402. Description: FP screen. This is another data set of the same source.
The target in assay [41] is T6, soluble HLA-B*4501. The assay is described as follows: FP screen.
The target in assay [42] is T21, soluble HLA-A*6901 (sHLA-A*6901). The assay is described as follows: FP screen. This is another data set of the same source.
Assay [43] has as its target T22, soluble HLA-A*1102 (sHLA-A*1102). Description: FP screen. This is another data set of the same source.
The target of assay [44] is T23, soluble HLA-A*4301 (sHLA-A*4301). The assay is described as follows: FP screen. This is another data set of the same source.
The target in assay [45] is T1, soluble HLA-B*1501. The assay is described as follows: FP screen of 53 sHLA with FITC-peptide. This is another data set of the same source.
The target of assay [46] is T14, soluble HLA-B*1801. Description: FP screen of 53 sHLA with FITC-peptide.
Assay [47] has as its target T9, soluble HLA-B*4402. Description: FP screen of 53 sHLA.
The target of assay [48] is T8, soluble HLA-B*4002. Description: FP screen of 53 sHLA with FITC-peptide.
Assay [49] deals with T16, soluble HLA-B*4001. Description: FP screen of 53 sHLA with FITC-peptide.

The results in this text go back to patent publication US20140093973A1 (BOARD OF REGENTS OF THE UNIVERSITY OF OKLAHOMA, published 2014).

Like-named read-outs stand apart in the source and are kept apart here. Ends that are not written are not given here.

On to QYSWFKNGTF (not fully specified; also: FITC-labeled, position not given here) [QYSWFKNGTF, FITC-labeled A24-like peptide], for which the binding result in [1], in assay [2], in [3], in [4], in assay [5] and in [6] was “binds” throughout. Further, the binding result in [7], in [8], in [9], in assay [10], in [11] and in assay [12] was “no binding (tested: 100 ug/ml sHLA)” throughout. Besides, the binding result in assay [13], in [14], in assay [15], in [16], in assay [17] and in [18] was “no binding (tested: 100 ug/ml sHLA)” in each case. The binding result in [19], in assay [20], in assay [21], in assay [22], in assay [23] and in assay [24] was “no binding (tested: 100 ug/ml sHLA)” each time.
As to EEKLIVKQY (also: FITC-labeled, position not given here) [EEKLIVKQY, FITC-labeled B44-like peptide], the binding result was “binds” in [25]; “no binding (tested: 100 ug/ml sHLA)” in assay [26]; “no binding (tested: 100 ug/ml sHLA)” in assay [27]; “no binding (tested: 100 ug/ml sHLA)” in assay [28]; “no binding (tested: 100 ug/ml sHLA)” in assay [29]; “no binding (tested: 100 ug/ml sHLA)” in assay [30]. Moreover, the binding result in [31], in assay [32], in assay [33], in assay [34], in assay [35] and in [36] was “no binding (tested: 100 ug/ml sHLA)” each time. Further, the binding result in [37], in assay [38], in assay [39], in [40], in [41] and in [42] was “no binding (tested: 100 ug/ml sHLA)” each time. Also, the binding result in [43] was “no binding (tested: 100 ug/ml sHLA)”; in assay [44], “no binding (tested: 100 ug/ml sHLA)”; in assay [45], “binds”; in assay [46], “binds”.
With AELLAAKF (also: FITC-labeled, position not given here) [AELLAAKF, FITC-labeled B44-like peptide], the binding result in [47] is “no binding (tested: 2 nM peptide, 100 ug/ml activated sHLA)”; in [48], “binds”; in assay [46] it was “binds”; in [49] it was “binds”.
